Test results taken from the Human Domainome abundance scans (Beltran et al. 2025).

B1: Far upstream element-binding protein 1, residues 98 to 169; numbered along this chain, Q96AE4 (parent)
chain: RSVMTEEYKVPDGMVGFIIGRGGEQISRIQQESGCKIQIAPDSGGLPERSCMLTGTPESVQSAKRLLDQIVE

Variants of: B1
Test: abundance fitness (aPCA) (normalised: wild type 0, dead -1); higher = more abundant; growth selection in yeast, the domain comes from the species named
Conditions: Homo sapiens

Abundance fitness, by site and new letter:
K36: R -0.034 | M -0.047 | T -0.062 | V -0.022 | L -0.026 | W -0.129 | I -0.078 | Y -0.149 | S -0.041 | A -0.018 | H -0.046 | E -0.025 | Q -0.04 | G -0.058 | P -0.666 | F -0.044 | D -0.02 | C -0.031 | N -0.059
I29: R -0.876 | F -0.144 | P -0.906 | W -0.26 | N -0.787 | T -0.211 | Y -0.246 | M -0.042 | Q -0.915 | G -0.943 | V -0.031 | H -0.423 | A -0.226 | S -0.682 | E -0.781 | D -0.935 | C -0.179 | K -0.881
E32: L -0.092 | Y -0.235 | M -0.067 | Q -0.059 | F -0.208 | P -0.796 | K -0.077 | N -0.12 | V -0.05 | D -0.076 | G -0.166 | C -0.096 | A -0.071
G23: A -0.045 | P -0.181 | I -0.17 | L -0.174 | C -0.101 | F -0.179 | M -0.037 | E -0.011 | Q -0.062 | S -0.061 | N -0.055 | V -0.157 | D -0.051 | W -0.101 | Y -0.072 | T -0.127 | R -0.044 | H -0.159
G20: V -0.253 | W -0.321 | N -0.115 | Y -0.279 | R -0.112 | S -0.078 | Q -0.178 | T -0.182
A40: F -0.101 | P -0.02 | D -0.039 | G -0.039 | T -0.024 | M -0.032 | V -0.089 | L -0.05 | Q -0.045 | K -0.058 | R -0.064 | Y -0.088 | S -0.034 | N -0.103 | C -0.023
S27: H -0.012 | T -0.003 | D -0.046 | L -0.054 | P -0.198 | G -0.016 | R 0.014 | W -0.057 | K 0.036 | Q 0.027 | A 0.024 | E 0.007 | I -0.055 | M -0.025 | C -0.042 | N -0.042 | V -0.017 | Y -0.07
S33: F -0.219 | M -0.414 | P -0.865 | H -0.308 | Q -0.431 | L -0.325 | N -0.534 | T -0.034 | C -0.158 | Y -0.435 | G -0.522 | W -0.59 | I -0.313 | A -0.068 | D -0.868
I37: L -0.087 | R -1.05 | K -0.911 | W -0.933 | N -0.848 | A -0.313 | V -0.038 | S -0.788 | M -0.081 | F -0.25 | C -0.129 | Q -0.911 | P -0.679 | D -0.873 | T -0.48 | E -0.937 | Y -0.963 | H -0.775
C35: V -0.087 | N -0.955 | F -1.1 | L -0.554 | A -0.036 | H -0.835 | G -0.489 | D -0.81 | Y -1.09 | P -0.986 | W -1.19 | K -0.945 | R -0.935 | E -0.835 | Q -0.936 | T -0.172 | I -0.261 | M -0.847 | S -0.154
P41: R -0.031 | S -0.023 | V -0.111 | N -0.051 | Y -0.16 | F -0.198
